Measured values published in the supplement of paper PMC9112550, “Optimization of the antimicrobial peptide Bac7 by deep mutational scanning” (BMC Biology, 2022).

System: Escherichia coli TOP10
Experiment: shrunken log2 fold change of peptide-encoding DNA abundance (4.5 h post-induction vs induction); higher = less antimicrobial activity (less host growth inhibition)
Details: time post-induction: 4.5 h; library: site-saturation at positions 5, 18, 19, 20
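Also: peptides expressed intracellularly from a pBAD plasmid library in pooled LB shake-flask culture, induced with 0.3% L-arabinose, DNA abundance read by NGS, three biological replicates, DESeq2 with apeglm shrinkage.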

Sequence | shrunken log2 fold change
RRIRFRPPRLPRPRPRPTNFPRP | -0.0824
RRIRQRPPRLPRPRPRPYVMPRP | -0.108
RRIRERPPRLPRPRPRPTMPPRP | -0.124
RRIRSRPPRLPRPRPRPNRGPRP | 0.0138
RRIRERPPRLPRPRPRPDDWPRP | -0.0125
RRIRTRPPRLPRPRPRPMCYPRP | -0.252
RRIRIRPPRLPRPRPRPSEFPRP | -0.177
RRIRARPPRLPRPRPRPTCPPRP | 0.444
RRIRGRPPRLPRPRPRPMTFPRP | 0.536
RRIRKRPPRLPRPRPRPAPAPRP | 1.05
RRIRERPPRLPRPRPRPNFLPRP | -0.114
RRIRTRPPRLPRPRPRPNYKPRP | -0.823
RRIRDRPPRLPRPRPRPWEDPRP | 0.0111
RRIRCRPPRLPRPRPRPHPSPRP | -0.00515
RRIRLRPPRLPRPRPRPHPGPRP | 0.242
RRIRRRPPRLPRPRPRPWPFPRP | -0.0442
RRIRNRPPRLPRPRPRPTVMPRP | 0.178
RRIRKRPPRLPRPRPRPIEYPRP | -0.156
RRIRSRPPRLPRPRPRPSLVPRP | -0.345
RRIRSRPPRLPRPRPRPQVAPRP | 0.0589
RRIRPRPPRLPRPRPRPMWAPRP | -0.201
RRIRIRPPRLPRPRPRPGGYPRP | -0.16
RRIRMRPPRLPRPRPRPHFFPRP | -0.134
RRIRCRPPRLPRPRPRPRNTPRP | 0.855
RRIRNRPPRLPRPRPRPEFPPRP | 0.0125

Sequence | shrunken log2 fold change
RRIRKRPPRLPRPRPRPFYQPRP | -0.101
RRIRHRPPRLPRPRPRPERHPRP | 0.0281
RRIRMRPPRLPRPRPRPQANPRP | 0.271
RRIRCRPPRLPRPRPRPYREPRP | -0.09
RRIRIRPPRLPRPRPRPRIEPRP | -0.246
RRIRGRPPRLPRPRPRPCNEPRP | 0.0278
RRIRVRPPRLPRPRPRPDEVPRP | 0.0201
RRIRIRPPRLPRPRPRPTCCPRP | 0.111
RRIRRRPPRLPRPRPRPIMIPRP | -0.105
RRIRFRPPRLPRPRPRPLILPRP | -0.739
RRIRIRPPRLPRPRPRPKAHPRP | -0.242
RRIRQRPPRLPRPRPRPSDIPRP | -0.0397
RRIRLRPPRLPRPRPRPEMLPRP | -0.108
RRIRSRPPRLPRPRPRPNCDPRP | -0.00648
RRIRYRPPRLPRPRPRPCRAPRP | -0.459
RRIRTRPPRLPRPRPRPGELPRP | -0.108
RRIRGRPPRLPRPRPRPSCPPRP | -0.12
RRIRARPPRLPRPRPRPYTDPRP | -0.785
RRIRDRPPRLPRPRPRPFNWPRP | 0.0464
RRIRMRPPRLPRPRPRPAAYPRP | 0.206
RRIRFRPPRLPRPRPRPFHFPRP | -0.532
RRIRERPPRLPRPRPRPVNTPRP | -0.34
RRIRLRPPRLPRPRPRPVELPRP | 0.0718
RRIRMRPPRLPRPRPRPWPFPRP | 0.0942
RRIRLRPPRLPRPRPRPTHHPRP | 0.239

Sequence | shrunken log2 fold change
RRIRVRPPRLPRPRPRPSGYPRP | -0.28
RRIRFRPPRLPRPRPRPYHSPRP | -0.0452
RRIRVRPPRLPRPRPRPMWTPRP | -0.0192
RRIRSRPPRLPRPRPRPLFNPRP | -0.632
RRIRFRPPRLPRPRPRPYVNPRP | -1.52
RRIRHRPPRLPRPRPRPMMNPRP | -0.0135
RRIRYRPPRLPRPRPRPFSNPRP | 0.0549
RRIRARPPRLPRPRPRPHYDPRP | -0.0354
RRIRPRPPRLPRPRPRPNENPRP | -0.348
RRIRVRPPRLPRPRPRPRCMPRP | -0.23
RRIRKRPPRLPRPRPRPHRHPRP | 0.023
RRIRLRPPRLPRPRPRPVCWPRP | 0.462
RRIRTRPPRLPRPRPRPFAFPRP | 0.0192
RRIRGRPPRLPRPRPRPMPRPRP | 1.03
RRIRPRPPRLPRPRPRPHWCPRP | -0.159
RRIRNRPPRLPRPRPRPFRIPRP | -0.0132
RRIRSRPPRLPRPRPRPYWEPRP | -0.0147
RRIRERPPRLPRPRPRPFAPPRP | 0.117
RRIRFRPPRLPRPRPRPMFFPRP | -0.549
RRIRTRPPRLPRPRPRPPNGPRP | 0.104
RRIRSRPPRLPRPRPRPQWKPRP | -0.0984
RRIRRRPPRLPRPRPRPCWWPRP | 0.261
RRIRCRPPRLPRPRPRPTCEPRP | 0.142
RRIRARPPRLPRPRPRPIEEPRP | -0.0473
RRIRPRPPRLPRPRPRPAIPPRP | -0.0146

Sequence | shrunken log2 fold change
RRIRQRPPRLPRPRPRPRRTPRP | 0.655
RRIRRRPPRLPRPRPRPPVLPRP | 0.18
RRIRIRPPRLPRPRPRPYDQPRP | -0.295
RRIRQRPPRLPRPRPRPCENPRP | 0.0237
RRIRLRPPRLPRPRPRPAVAPRP | 0.552
RRIRHRPPRLPRPRPRPQILPRP | -0.0081
RRIRCRPPRLPRPRPRPDNTPRP | 0.881
RRIRERPPRLPRPRPRPCQRPRP | 0.0562
RRIRTRPPRLPRPRPRPTYHPRP | -0.291
RRIRYRPPRLPRPRPRPYWNPRP | -1.63
RRIRPRPPRLPRPRPRPSSGPRP | -0.494
RRIRMRPPRLPRPRPRPVQGPRP | 0.0203
RRIRCRPPRLPRPRPRPTHIPRP | -0.326
RRIRHRPPRLPRPRPRPSDCPRP | -0.126
RRIRVRPPRLPRPRPRPYRHPRP | -1.08
RRIRQRPPRLPRPRPRPMCFPRP | -0.352
RRIRDRPPRLPRPRPRPFETPRP | -0.0134
RRIRRRPPRLPRPRPRPSKYPRP | -0.483
RRIRARPPRLPRPRPRPGAFPRP | 0.454
RRIRYRPPRLPRPRPRPGQQPRP | 0.0541
RRIRHRPPRLPRPRPRPNSFPRP | 0.00867
RRIRLRPPRLPRPRPRPVYSPRP | -0.881
RRIRIRPPRLPRPRPRPAVEPRP | 0.193
RRIRDRPPRLPRPRPRPLVMPRP | 0.0567
RRIRVRPPRLPRPRPRPYIVPRP | -0.00649

Sequence | shrunken log2 fold change
RRIRNRPPRLPRPRPRPGWHPRP | -0.154
RRIRERPPRLPRPRPRPLNVPRP | -0.0706
RRIRWRPPRLPRPRPRPEMIPRP | 0.0062
RRIRPRPPRLPRPRPRPRIGPRP | 0.0981
RRIRDRPPRLPRPRPRPENQPRP | 0.351
RRIRNRPPRLPRPRPRPMLAPRP | -0.053
RRIRSRPPRLPRPRPRPMCVPRP | -0.134
RRIRERPPRLPRPRPRPLPYPRP | -0.345
RRIRGRPPRLPRPRPRPKDYPRP | -0.00224
RRIRERPPRLPRPRPRPSIHPRP | -0.147
RRIRYRPPRLPRPRPRPLLVPRP | -0.692
RRIRQRPPRLPRPRPRPYAVPRP | -0.00389
RRIRMRPPRLPRPRPRPEPDPRP | 1.12
RRIRTRPPRLPRPRPRPETEPRP | -0.016
RRIRNRPPRLPRPRPRPSRKPRP | -0.21
RRIRFRPPRLPRPRPRPMQTPRP | -0.101
RRIRIRPPRLPRPRPRPHKCPRP | -0.639
RRIRKRPPRLPRPRPRPKVGPRP | 0.00386
RRIRKRPPRLPRPRPRPNVCPRP | -0.144
RRIRMRPPRLPRPRPRPYRRPRP | 0.0224
RRIRPRPPRLPRPRPRPVNSPRP | -0.196
RRIRQRPPRLPRPRPRPDDLPRP | 0.0248
RRIRFRPPRLPRPRPRPWSWPRP | -0.169
RRIRIRPPRLPRPRPRPWFFPRP | -0.198
RRIRWRPPRLPRPRPRPHVAPRP | 0.181

Sequence | shrunken log2 fold change
RRIRQRPPRLPRPRPRPAKWPRP | -0.0192
RRIRNRPPRLPRPRPRPVCRPRP | 0.0204
RRIRFRPPRLPRPRPRPDLGPRP | 0.106
RRIRVRPPRLPRPRPRPMRCPRP | 0.204
RRIRNRPPRLPRPRPRPPEGPRP | 1.62
RRIRYRPPRLPRPRPRPYQEPRP | -0.00233
RRIRVRPPRLPRPRPRPKYPPRP | -0.188
RRIRGRPPRLPRPRPRPWYAPRP | -0.249
RRIRIRPPRLPRPRPRPQCEPRP | -0.0436
RRIRRRPPRLPRPRPRPADSPRP | -0.0331
RRIRFRPPRLPRPRPRPIDPPRP | -0.526
RRIRERPPRLPRPRPRPNWSPRP | -0.3
RRIRKRPPRLPRPRPRPGCQPRP | 0.702
RRIRFRPPRLPRPRPRPNKVPRP | -0.92
RRIRWRPPRLPRPRPRPNHWPRP | -0.0748
RRIRNRPPRLPRPRPRPKVGPRP | 0.148
RRIRNRPPRLPRPRPRPLHCPRP | -0.168
RRIRARPPRLPRPRPRPSIDPRP | -0.0466
RRIRYRPPRLPRPRPRPIHKPRP | -0.6
RRIRFRPPRLPRPRPRPKCEPRP | 0.051
RRIRPRPPRLPRPRPRPNNRPRP | -0.349
RRIRFRPPRLPRPRPRPVNRPRP | 0.188
RRIRLRPPRLPRPRPRPCSDPRP | 0.0181
RRIRCRPPRLPRPRPRPSLHPRP | -0.289
RRIRGRPPRLPRPRPRPCLDPRP | -0.0991
